# Patent US9403884B2, “Peptides useful as cell-penetrating peptides” (Evonik Roehm GmbH, priority 2005, dated 2016)
# fluorescein = fluorescein label (fluorescent marker on the peptide)
# How the values were obtained:
# HeLa cells [1] = assay: Cytotoxicity of hLF-peptide, cell viability by MTT test; format: cell-based, human; conditions: FIG. 6
# Method: However, for live cell microscopy of peptide uptake mostly rather short incubation times of less than one hour were employed. It was therefore also tested whether for longer incubation times and higher concentrations, the peptide affected cell viability. HeLa cells were incubated with the hLF-peptide at concentrations ranging from 1.25 μM to up to 160 μM for either 6 or 0.5 hours. Afterwards cell viability was determined using an MTT test. The result thereof are depicted in FIG. 6.
# HeLa cells [2] = assay: Cytotoxic effects observed during the uptake experiments (flow cytometry, live cell microscopy); format: cell-based, human; conditions: concentration range of up to 40 μM, mostly incubation times of less than one hour
substance,measurement,setting,value
Fluo-KCFQWQRNMRKVRGPPVSCIKR-CONH2 (fluorescein-KCFQWQRNMRKVRGPPVSCIKR-NH2; cysteine pairing not given here; listed as Homo sapiens) [hLF-peptide],cell viability (MTT),"HeLa cells [1]; after 6 hours, peptide concentrations higher than 5 μM",slightly reduced
same,cell viability (MTT),HeLa cells [1]; concentrations higher than 40 μM (tested up to 160 μM),all cells were killed
same,cytotoxicity (MTT cell viability),"HeLa cells [1]; incubated 30 minutes, concentrations up to 40 μM",no cytotoxicity was observed
same,cytotoxic effects in the uptake experiments,HeLa cells [2],no cytotoxic effects could be observed
